Results as given in patent publication US20240132571A1 (MEDPACTO, published 2024).
One block for each binder: values may come before it.

Assays:
[1] = target: T1, TM4SF19 in which 3HA was tagged at the N-terminus (human TM4SF19, NP_612470.2 isoform 1) (human, UniProt Q96DZ7 1-209); experiment: immunoprecipitation, 3HA- and 3Flag-tagged TM4SF19 in 293T cells
T1 construct: also called 3HA-TM4SF19; TM4SF19 tagged with 3HA in N-terminus; not shown: 3HA tag at the N-terminus
T1 sequence: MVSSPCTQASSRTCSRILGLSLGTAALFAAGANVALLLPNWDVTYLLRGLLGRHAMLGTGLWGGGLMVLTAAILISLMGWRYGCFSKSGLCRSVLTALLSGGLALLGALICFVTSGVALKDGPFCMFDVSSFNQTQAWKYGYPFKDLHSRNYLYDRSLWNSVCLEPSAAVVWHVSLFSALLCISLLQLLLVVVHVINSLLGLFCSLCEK
Description: To confirm whether TM4SF19 is involved in cell-to-cell interactions, HA- or flag-tagged TM4SF19 was manufactured. TM4SF19 in which 3HA was tagged at the N-terminus, a wild-type in which 3Flag was tagged at the N-terminus, and a TM4SF19-deletion mutant were subjected to transient overexpression in 293T cells to confirm binding through immunoprecipitation.

[2] = target: T1, TM4SF19 in which 3HA was tagged at the …; experiment: immunoprecipitation, 293T cells
Description: In the same manner as described above, by the transient overexpression of TM4SF19 in which 3HA was tagged at the N-terminus, a wild-type in which 3Flag was tagged at the N-terminus, and a TM4SF19 deletion mutant in 293T cells, binding was confirmed through immunoprecipitation.

- binding result [1]: binds
B1: wild-type TM4SF19 in which 3Flag was tagged at the N-terminus (human TM4SF19) (other)
chain: T1 sequence
notes: Overexpressed in 293T cells (for the integrins: 293T or Raw 264.7 cells) and tested by immunoprecipitation; also called 3Flag-hTM4SF19; TM4SF19 wt; not shown: 3Flag tag at the N-terminus

- binding result [2]: binds
B2: hTm4sf19 94-196 (only aa 94-196 of hTM4SF19 remains, other sequences deleted) (other)
chain: VLTALLSGGLALLGALICFVTSGVALKDGPFCMFDVSSFNQTQAWKYGYPFKDLHSRNYLYDRSLWNSVCLEPSAAVVWHVSLFSALLCISLLQLLLVVVHVI
notes: Expresses transmembrane 3, extracellular region 2 (EC2) and transmembrane 4 of TM4SF19; overexpressed in 293T cells; not shown: tag not expressly stated for this mutant (the other mutants carry 3Flag)

- binding result [2]: no binding
B3: hTM4SF19 94-196Δ (3Flag-tagged deletion mutant lacking transmembrane 3, extracellular region 2 and transmembrane 4) (other)
chain: MVSSPCTQASSRTCSRILGLSLGTAALFAAGANVALLLPNWDVTYLLRGLLGRHAMLGTGLWGGGLMVLTAAILISLMGWRYGCFSKSGLCRSNSLLGLFCSLCEK
notes: the kept ranges are worked out from the printed deletion limits; not shown: 3Flag tag
